Results published in US20230220042A1 (SHANGHAI JIAO TONG UNIVERSITY SCHOOL OF MEDICINE, published 2023).

T1: FcγRIIA^131H (human, UniProt P12318 34-217, biotin-labeled)
T1 construct: extracellular domain; Bought protein; also called RIIAH
T1 sequence (looked up): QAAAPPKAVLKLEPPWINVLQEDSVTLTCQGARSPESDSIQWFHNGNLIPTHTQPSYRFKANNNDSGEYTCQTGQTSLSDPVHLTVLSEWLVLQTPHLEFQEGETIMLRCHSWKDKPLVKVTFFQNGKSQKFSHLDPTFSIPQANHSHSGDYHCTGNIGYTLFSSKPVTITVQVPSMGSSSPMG

T2: FcγRIIA^131R (human, UniProt P12318 34-217, biotin-labeled)
T2 construct: extracellular domain; Bought protein; also called RIIAR
T2 sequence (looked up): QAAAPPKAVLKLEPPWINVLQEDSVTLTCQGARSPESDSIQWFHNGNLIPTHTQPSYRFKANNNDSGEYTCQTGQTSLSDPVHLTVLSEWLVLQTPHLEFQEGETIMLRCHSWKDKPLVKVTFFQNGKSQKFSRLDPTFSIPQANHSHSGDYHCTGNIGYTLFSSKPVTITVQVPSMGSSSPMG

T3: FcγRIIB (human, UniProt P31994 43-217, biotin-labeled)
T3 construct: extracellular domain; Bought protein; also called CD32b
T3 sequence (looked up): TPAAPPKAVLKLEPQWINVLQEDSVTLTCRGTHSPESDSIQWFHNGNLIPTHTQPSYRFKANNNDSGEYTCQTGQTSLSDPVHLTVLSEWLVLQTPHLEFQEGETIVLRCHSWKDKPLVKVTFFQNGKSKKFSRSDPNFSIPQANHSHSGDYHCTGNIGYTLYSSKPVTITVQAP


Assays:
FcγRI = target: T4, FcγRI (human, UniProt P12314 16-292, biotin-labeled); assay: ELISA, coated antibody, biotin-FcγR;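 on Absorbance value: antibody coated at 2 µg/mL at 100 µL per well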
T4 construct: extracellular domain; Bought protein; also called CD64
T4 sequence (P12314 16-292): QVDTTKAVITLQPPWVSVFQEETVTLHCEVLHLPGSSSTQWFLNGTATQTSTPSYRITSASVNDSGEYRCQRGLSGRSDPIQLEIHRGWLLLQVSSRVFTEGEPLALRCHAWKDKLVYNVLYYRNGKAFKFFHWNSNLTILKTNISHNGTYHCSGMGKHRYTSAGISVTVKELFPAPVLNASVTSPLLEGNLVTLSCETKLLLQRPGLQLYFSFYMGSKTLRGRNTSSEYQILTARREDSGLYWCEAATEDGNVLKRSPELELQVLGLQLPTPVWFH
Method: (§1) One hundred μl (2 μg/mL) of antibody or mutant thereof were added to the enzyme-linked plate to be coated overnight, then the supernatant was discarded. The plate was blocked with PBS containing 1% BSA for 2 hours, and washed with PBST (PBS containing 0.05% Tween 20). Biotin-labeled FcγR extracellular domain protein (Beijing Sino Biological Co., Ltd) of appropriate concentration was added and incubated at room temperature for 1 hour, then the supernatant was discarded and the plate was washed with PBST. The Biotin-labeled protein was detected by incubating with Streptavidin-HRP (BD BioSciences) at room temperature for 1 hour. The supernatant was removed, and the color-developing solution was added for color development for 20-40 minutes to determine the absorbance of 650 nm (A650).
(§2) Anti-human OX40 antibodies containing these new Fc mutation combinations are expressed and the binding property of the mutant antibody to FcγR are analyzed by Enzyme-linked immunosorbent assay (ELISA).

FcγRIIA^131H = target: T1, FcγRIIA^131H; assay: ELISA, coated antibody, biotin-FcγR;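 on Absorbance value: antibody coated at 2 µg/mL at 100 µL per well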
Method: as §1, §2

FcγRIIA^131R = target: T2, FcγRIIA^131R; assay: ELISA, coated antibody, biotin-FcγR;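 on Absorbance value: antibody coated at 2 µg/mL at 100 µL per well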
Method: as §1, §2

FcγRIIB [1] = target: T3, FcγRIIB; assay: ELISA, coated antibody, biotin-FcγR;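 on Absorbance value: antibody coated at 2 µg/mL at 100 µL per well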
Method: as §1, §2

FcγRIIIA^158F = target: T5, FcγRIIIA^158F (human, UniProt P08637 17-208, biotin-labeled); assay: ELISA, coated antibody, biotin-FcγR;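 on Absorbance value: antibody coated at 2 µg/mL at 100 µL per well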
T5 construct: extracellular domain; Bought protein; also called RIIIAF
T5 sequence (P08637 17-208): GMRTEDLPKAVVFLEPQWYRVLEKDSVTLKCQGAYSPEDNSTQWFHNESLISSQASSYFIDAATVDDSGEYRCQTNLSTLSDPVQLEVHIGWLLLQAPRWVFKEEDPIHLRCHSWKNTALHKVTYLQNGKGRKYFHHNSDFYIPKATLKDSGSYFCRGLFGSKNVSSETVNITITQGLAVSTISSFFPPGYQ
Method: as §1, §2

FcγRIIIA^158V = target: T6, FcγRIIIA^158V (human, UniProt P08637 17-208, biotin-labeled); assay: ELISA, coated antibody, biotin-FcγR;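 on Absorbance value: antibody coated at 2 µg/mL at 100 µL per well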
T6 construct: extracellular domain; Bought protein; also called RIIIAV; CD16a 158V
T6 sequence (P08637 17-208 F176V): as the sequence (P08637 17-208) above, with F160V counted along it
Method: as §1, §2

FcγRIIB [2] = target: T3, FcγRIIB; assay: ELISA; relative affinity to FcγRIIB over that to FcγRIIA131R
Method: as §1, §2

Binder | Absorbance value (FcγRI) | Relative binding affinity RI/G1 (FcγRI) | Absorbance value (FcγRIIA^131H) | Relative binding affinity RIIAH/G1 (FcγRIIA^131H) | Absorbance value (FcγRIIA^131R) | Relative binding affinity RIIAR/G1 (FcγRIIA^131R) | Absorbance value (FcγRIIB [1]) | Increased factor of RIIB binding compared with wild-type IgG2 (FcγRIIB [1]) | Relative binding affinity RIIB/G1 (FcγRIIB [1]) | Absorbance value (FcγRIIIA^158F) | Relative binding affinity RIIIAF/G1 (FcγRIIIA^158F) | Absorbance value (FcγRIIIA^158V) | Relative binding affinity RIIIAV/G1 (FcγRIIIA^158V) | RIIB/RIIAR (FcγRIIB [2])
anti-human OX40 IgG2 antibody Mut_10 (S267E/H268S/E269D) (antibody, name in EU numbering, Substitutions in Eu numbering; entries include an unstated signal peptide) heavy: QVQLQESGPGLVKPSGTLSLTCAVSGGSISSSIWWSWVRQPPGKGLEWIGEIHHSGNTNCNPSLKSRVTISIDKSKNQFSLKLTSVTAADTAVYYCARAGTGTTLDYWGQGTLVTVSSASTKGPSVFPLAPCSRSTSESTAALGCLVKDYFPEPVTVSWNSGALTSGVHTFPAVLQSSGLYSLSSVVTVPSSNFGTQTYTCNVDHKPSNTKVDKTVERKCCVECPPCPAPPVAGPSVFLFPPKPKDTLMISRTPEVTCVVVDVESDDPEVQFNWYVDGVEVHNAKTKPREEQFNSTFRVVSVLTVVHQDWLNGKEYKCKVSNKGLPAPIEKTISKTKGQPREPQVYTLPPSREEMTKNQVSLTCLVKGFYPSDIAVEWESNGQPENNYKTTPPMLDSDGSFFLYSKLTVDKSRWQQGNVFSCSVMHEALHNHYTQKSLSLSPGK light: EIVLTQSPGTLSLSPGERATLSCRASQSVSGDYLAWYQQKLGQAPRLLIYGASIRATGIPDRFSGSGSGTDFTLTISKLEPEDFAVYYCQQYGSSPLTFGGGTKVEIKRTVAAPSVFIFPPSDEQLKSGTASVVCLLNNFYPREAKVQWKVDNALQSGNSQESVTEQDSKDSTYSLSSTLTLSKADYEKHKVYACEVTHQGLSSPVTKSFNRGEC | 0.18 A650 | 0.07 ratio | 0.58 A650 | 1.02 ratio | 0.43 A650 | 1.64 ratio | 1.05 A650 | 14.1 fold | 1.4 ratio | 0.09 A650 | 0.48 ratio | 0.09 A650 | 0.09 ratio | 0.85 ratio
anti-human OX40 IgG2 antibody Mut_14 (V234M/S267E/S298G/I332L) (antibody, Substitutions in Eu numbering; entries include an unstated signal peptide) heavy: QVQLQESGPGLVKPSGTLSLTCAVSGGSISSSIWWSWVRQPPGKGLEWIGEIHHSGNTNCNPSLKSRVTISIDKSKNQFSLKLTSVTAADTAVYYCARAGTGTTLDYWGQGTLVTVSSASTKGPSVFPLAPCSRSTSESTAALGCLVKDYFPEPVTVSWNSGALTSGVHTFPAVLQSSGLYSLSSVVTVPSSNFGTQTYTCNVDHKPSNTKVDKTVERKCCVECPPCPAPPMAGPSVFLFPPKPKDTLMISRTPEVTCVVVDVEHEDPEVQFNWYVDGVEVHNAKTKPREEQFNGTFRVVSVLTVVHQDWLNGKEYKCKVSNKGLPAPLEKTISKTKGQPREPQVYTLPPSREEMTKNQVSLTCLVKGFYPSDIAVEWESNGQPENNYKTTPPMLDSDGSFFLYSKLTVDKSRWQQGNVFSCSVMHEALHNHYTQKSLSLSPGK light: EIVLTQSPGTLSLSPGERATLSCRASQSVSGDYLAWYQQKLGQAPRLLIYGASIRATGIPDRFSGSGSGTDFTLTISKLEPEDFAVYYCQQYGSSPLTFGGGTKVEIKRTVAAPSVFIFPPSDEQLKSGTASVVCLLNNFYPREAKVQWKVDNALQSGNSQESVTEQDSKDSTYSLSSTLTLSKADYEKHKVYACEVTHQGLSSPVTKSFNRGEC | 0.12 A650 | 0.04 ratio | 0.12 A650 | 0.21 ratio | 0.32 A650 | 1.22 ratio | 0.7 A650 | 9.36 fold | 0.93 ratio | 0.06 A650 | 0.31 ratio | 0.05 A650 | 0.06 ratio | 0.76 ratio
anti-human OX40 IgG2 antibody Mut_13 (V266L/S298L/L328W) (antibody, name in EU numbering, Substitutions in Eu numbering; entries include an unstated signal peptide) heavy: QVQLQESGPGLVKPSGTLSLTCAVSGGSISSSIWWSWVRQPPGKGLEWIGEIHHSGNTNCNPSLKSRVTISIDKSKNQFSLKLTSVTAADTAVYYCARAGTGTTLDYWGQGTLVTVSSASTKGPSVFPLAPCSRSTSESTAALGCLVKDYFPEPVTVSWNSGALTSGVHTFPAVLQSSGLYSLSSVVTVPSSNFGTQTYTCNVDHKPSNTKVDKTVERKCCVECPPCPAPPVAGPSVFLFPPKPKDTLMISRTPEVTCVVVDLSHEDPEVQFNWYVDGVEVHNAKTKPREEQFNLTFRVVSVLTVVHQDWLNGKEYKCKVSNKGWPAPIEKTISKTKGQPREPQVYTLPPSREEMTKNQVSLTCLVKGFYPSDIAVEWESNGQPENNYKTTPPMLDSDGSFFLYSKLTVDKSRWQQGNVFSCSVMHEALHNHYTQKSLSLSPGK light: EIVLTQSPGTLSLSPGERATLSCRASQSVSGDYLAWYQQKLGQAPRLLIYGASIRATGIPDRFSGSGSGTDFTLTISKLEPEDFAVYYCQQYGSSPLTFGGGTKVEIKRTVAAPSVFIFPPSDEQLKSGTASVVCLLNNFYPREAKVQWKVDNALQSGNSQESVTEQDSKDSTYSLSSTLTLSKADYEKHKVYACEVTHQGLSSPVTKSFNRGEC | 0.18 A650 | 0.07 ratio | 0.33 A650 | 0.58 ratio | 0.26 A650 | 1.01 ratio | 0.73 A650 | 9.75 fold | 0.97 ratio | 0.07 A650 | 0.37 ratio | 0.08 A650 | 0.09 ratio | 0.96 ratio
anti-human OX40 IgG2 antibody Mut_11 (S267E/A330S) (antibody, name in EU numbering, Substitutions in Eu numbering; entries include an unstated signal peptide) heavy: QVQLQESGPGLVKPSGTLSLTCAVSGGSISSSIWWSWVRQPPGKGLEWIGEIHHSGNTNCNPSLKSRVTISIDKSKNQFSLKLTSVTAADTAVYYCARAGTGTTLDYWGQGTLVTVSSASTKGPSVFPLAPCSRSTSESTAALGCLVKDYFPEPVTVSWNSGALTSGVHTFPAVLQSSGLYSLSSVVTVPSSNFGTQTYTCNVDHKPSNTKVDKTVERKCCVECPPCPAPPVAGPSVFLFPPKPKDTLMISRTPEVTCVVVDVEHEDPEVQFNWYVDGVEVHNAKTKPREEQFNSTFRVVSVLTVVHQDWLNGKEYKCKVSNKGLPSPIEKTISKTKGQPREPQVYTLPPSREEMTKNQVSLTCLVKGFYPSDIAVEWESNGQPENNYKTTPPMLDSDGSFFLYSKLTVDKSRWQQGNVFSCSVMHEALHNHYTQKSLSLSPGK light: EIVLTQSPGTLSLSPGERATLSCRASQSVSGDYLAWYQQKLGQAPRLLIYGASIRATGIPDRFSGSGSGTDFTLTISKLEPEDFAVYYCQQYGSSPLTFGGGTKVEIKRTVAAPSVFIFPPSDEQLKSGTASVVCLLNNFYPREAKVQWKVDNALQSGNSQESVTEQDSKDSTYSLSSTLTLSKADYEKHKVYACEVTHQGLSSPVTKSFNRGEC | 0.13 A650 | 0.05 ratio | 0.55 A650 | 0.96 ratio | 0.36 A650 | 1.36 ratio | 1.01 A650 | 13.4 fold | 1.33 ratio | 0.08 A650 | 0.41 ratio | 0.08 A650 | 0.08 ratio | 0.98 ratio
anti-human OX40 IgG2 antibody Mut_12 (P233F/V266L/S298L/L328W) (antibody, Substitutions in Eu numbering; entries include an unstated signal peptide) heavy: QVQLQESGPGLVKPSGTLSLTCAVSGGSISSSIWWSWVRQPPGKGLEWIGEIHHSGNTNCNPSLKSRVTISIDKSKNQFSLKLTSVTAADTAVYYCARAGTGTTLDYWGQGTLVTVSSASTKGPSVFPLAPCSRSTSESTAALGCLVKDYFPEPVTVSWNSGALTSGVHTFPAVLQSSGLYSLSSVVTVPSSNFGTQTYTCNVDHKPSNTKVDKTVERKCCVECPPCPAPFVAGPSVFLFPPKPKDTLMISRTPEVTCVVVDLSHEDPEVQFNWYVDGVEVHNAKTKPREEQFNLTFRVVSVLTVVHQDWLNGKEYKCKVSNKGWPAPIEKTISKTKGQPREPQVYTLPPSREEMTKNQVSLTCLVKGFYPSDIAVEWESNGQPENNYKTTPPMLDSDGSFFLYSKLTVDKSRWQQGNVFSCSVMHEALHNHYTQKSLSLSPGK light: EIVLTQSPGTLSLSPGERATLSCRASQSVSGDYLAWYQQKLGQAPRLLIYGASIRATGIPDRFSGSGSGTDFTLTISKLEPEDFAVYYCQQYGSSPLTFGGGTKVEIKRTVAAPSVFIFPPSDEQLKSGTASVVCLLNNFYPREAKVQWKVDNALQSGNSQESVTEQDSKDSTYSLSSTLTLSKADYEKHKVYACEVTHQGLSSPVTKSFNRGEC | 0.21 A650 | 0.08 ratio | 0.39 A650 | 0.68 ratio | 0.33 A650 | 1.26 ratio | 0.94 A650 | 12.6 fold | 1.25 ratio | 0.06 A650 | 0.32 ratio | 0.06 A650 | 0.06 ratio | 0.99 ratio
